{
  "source": "paper PMC8643277",
  "key": {"MBP-NLRP3 deltaPYD": {"biological_target": "MBP-NLRP3 deltaPYD (UniProt Q96P20 134-1034)", "sequence (Q96P20 134-1034, stated change not applied)": "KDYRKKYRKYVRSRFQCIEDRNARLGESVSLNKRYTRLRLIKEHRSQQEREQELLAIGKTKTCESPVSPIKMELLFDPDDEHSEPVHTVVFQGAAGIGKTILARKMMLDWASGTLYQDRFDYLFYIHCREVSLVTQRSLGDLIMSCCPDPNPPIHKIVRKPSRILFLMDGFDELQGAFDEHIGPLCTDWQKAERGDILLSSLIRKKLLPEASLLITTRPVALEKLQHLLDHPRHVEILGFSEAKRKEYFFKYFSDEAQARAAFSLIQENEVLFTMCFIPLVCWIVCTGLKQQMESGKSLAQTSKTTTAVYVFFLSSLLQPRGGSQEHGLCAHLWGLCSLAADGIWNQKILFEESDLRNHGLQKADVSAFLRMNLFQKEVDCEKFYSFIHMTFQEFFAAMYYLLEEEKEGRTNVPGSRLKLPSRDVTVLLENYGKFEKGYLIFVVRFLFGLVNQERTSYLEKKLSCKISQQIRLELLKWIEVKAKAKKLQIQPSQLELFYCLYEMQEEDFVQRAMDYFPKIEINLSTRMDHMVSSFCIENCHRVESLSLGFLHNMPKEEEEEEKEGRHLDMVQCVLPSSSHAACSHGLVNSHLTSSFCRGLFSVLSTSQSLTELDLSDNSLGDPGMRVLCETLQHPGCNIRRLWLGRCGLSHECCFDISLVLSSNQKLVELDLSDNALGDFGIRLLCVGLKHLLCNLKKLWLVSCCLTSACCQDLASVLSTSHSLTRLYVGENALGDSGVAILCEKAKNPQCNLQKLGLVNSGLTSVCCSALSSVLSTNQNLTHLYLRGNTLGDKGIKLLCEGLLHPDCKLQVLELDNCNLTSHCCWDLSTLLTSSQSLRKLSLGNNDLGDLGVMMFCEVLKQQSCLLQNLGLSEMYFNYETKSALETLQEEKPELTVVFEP", "assay": "EMSA"}, "GFP-NLRP6 monomer": {"biological_target": "T1, GFP-NLRP6 monomer (Homo sapiens, UniProt P59044 1-892)", "T1 sequence": "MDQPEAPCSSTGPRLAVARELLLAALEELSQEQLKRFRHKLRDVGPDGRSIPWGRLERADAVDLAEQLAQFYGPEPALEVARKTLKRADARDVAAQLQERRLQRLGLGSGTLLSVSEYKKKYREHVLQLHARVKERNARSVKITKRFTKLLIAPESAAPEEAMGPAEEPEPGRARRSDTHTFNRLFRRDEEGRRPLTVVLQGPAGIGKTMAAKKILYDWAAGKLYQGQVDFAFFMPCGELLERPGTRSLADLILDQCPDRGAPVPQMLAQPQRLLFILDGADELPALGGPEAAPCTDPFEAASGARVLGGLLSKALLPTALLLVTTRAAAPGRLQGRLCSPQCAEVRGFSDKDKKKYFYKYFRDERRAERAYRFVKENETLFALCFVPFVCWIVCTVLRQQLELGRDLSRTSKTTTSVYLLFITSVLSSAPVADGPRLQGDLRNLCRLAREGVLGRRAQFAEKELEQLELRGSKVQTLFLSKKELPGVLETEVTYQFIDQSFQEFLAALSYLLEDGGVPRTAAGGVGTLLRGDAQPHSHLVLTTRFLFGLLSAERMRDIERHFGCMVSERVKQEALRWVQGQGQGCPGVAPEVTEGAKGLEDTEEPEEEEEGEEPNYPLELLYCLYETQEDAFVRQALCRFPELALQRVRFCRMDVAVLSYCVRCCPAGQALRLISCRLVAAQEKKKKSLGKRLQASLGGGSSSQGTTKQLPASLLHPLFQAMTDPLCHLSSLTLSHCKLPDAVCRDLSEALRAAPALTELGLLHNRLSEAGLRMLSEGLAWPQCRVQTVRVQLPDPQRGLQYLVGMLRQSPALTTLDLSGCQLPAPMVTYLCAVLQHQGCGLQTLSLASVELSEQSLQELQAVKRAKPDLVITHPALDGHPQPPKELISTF", "assay": "MST"}},
  "data": [
    {"binder": "20-bp dsRNA (dsRNA) RNA 1: GACCUUCUGAUCAGAAGGUC RNA 2: GACCUUCUGAUCAGAAGGUC", "values": [
      {"measurement": "binding result", "setting": "MBP-NLRP3 deltaPYD", "value": "no binding"},
      {"measurement": "Kd", "setting": "GFP-NLRP6 monomer", "value": "~1200", "unit": "nM"}
    ]}
  ]
}
